Measured values from article PMC3549490.
“And” between values parts separate entries of the source, which are not always exact repeats. Equal entries are not always repeated.

Assays:
[1] = target: UNC-45 Q452pBpa (wild-type Q452B) (C. elegans); experiment: cross-linking
[2] = target: UNC-45 (C. elegans), full-length recombinant protein (C. elegans); experiment: ITC

Substance | stoichiometry N [1] | Kd [2] [µM]
UNC-45 Q452pBpa (wild-type Q452B) (natural protein) | 2 and > 5 | –
Hsp90 (DAF-21 in C. elegans), full-length recombinant protein (from UniProt Q18688 1-702) (natural protein) | – | 31
